Consider one molecule from paper PMC4844822.

For this test, the target named is T1, oxidized wild type Prdx6 (H2O2-treated, over-oxidized protein) (human), P30041.
T1 chain: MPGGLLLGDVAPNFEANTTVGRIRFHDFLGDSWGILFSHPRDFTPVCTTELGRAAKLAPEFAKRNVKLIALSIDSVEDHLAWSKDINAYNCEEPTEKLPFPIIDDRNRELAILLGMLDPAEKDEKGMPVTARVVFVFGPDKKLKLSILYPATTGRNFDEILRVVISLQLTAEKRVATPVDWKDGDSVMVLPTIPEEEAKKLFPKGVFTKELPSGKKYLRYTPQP
The test is described as follows: AUC. The conditions noted are these: remark: other sources report otherwise.

B1: oxidized wild type Prdx6 (H2O2-treated, over-oxidized protein), P30041 1-224 (natural protein)
chain: T1 chain
modifications: here or on the partner: C47 over-oxidized (-SOOH/-SOOOH) by H2O2 treatment; C47 over-oxidized (-SOOH/-SOOOH) by H2O2 treatment
B1: the stoichiometry N was 2.
